The numbers were not newly measured in article PMC8910571, which cites them from elsewhere.

The series deals with T1, PTK7 (tyrosine kinase 7 protein) (UniProt Q13308).
T1 sequence: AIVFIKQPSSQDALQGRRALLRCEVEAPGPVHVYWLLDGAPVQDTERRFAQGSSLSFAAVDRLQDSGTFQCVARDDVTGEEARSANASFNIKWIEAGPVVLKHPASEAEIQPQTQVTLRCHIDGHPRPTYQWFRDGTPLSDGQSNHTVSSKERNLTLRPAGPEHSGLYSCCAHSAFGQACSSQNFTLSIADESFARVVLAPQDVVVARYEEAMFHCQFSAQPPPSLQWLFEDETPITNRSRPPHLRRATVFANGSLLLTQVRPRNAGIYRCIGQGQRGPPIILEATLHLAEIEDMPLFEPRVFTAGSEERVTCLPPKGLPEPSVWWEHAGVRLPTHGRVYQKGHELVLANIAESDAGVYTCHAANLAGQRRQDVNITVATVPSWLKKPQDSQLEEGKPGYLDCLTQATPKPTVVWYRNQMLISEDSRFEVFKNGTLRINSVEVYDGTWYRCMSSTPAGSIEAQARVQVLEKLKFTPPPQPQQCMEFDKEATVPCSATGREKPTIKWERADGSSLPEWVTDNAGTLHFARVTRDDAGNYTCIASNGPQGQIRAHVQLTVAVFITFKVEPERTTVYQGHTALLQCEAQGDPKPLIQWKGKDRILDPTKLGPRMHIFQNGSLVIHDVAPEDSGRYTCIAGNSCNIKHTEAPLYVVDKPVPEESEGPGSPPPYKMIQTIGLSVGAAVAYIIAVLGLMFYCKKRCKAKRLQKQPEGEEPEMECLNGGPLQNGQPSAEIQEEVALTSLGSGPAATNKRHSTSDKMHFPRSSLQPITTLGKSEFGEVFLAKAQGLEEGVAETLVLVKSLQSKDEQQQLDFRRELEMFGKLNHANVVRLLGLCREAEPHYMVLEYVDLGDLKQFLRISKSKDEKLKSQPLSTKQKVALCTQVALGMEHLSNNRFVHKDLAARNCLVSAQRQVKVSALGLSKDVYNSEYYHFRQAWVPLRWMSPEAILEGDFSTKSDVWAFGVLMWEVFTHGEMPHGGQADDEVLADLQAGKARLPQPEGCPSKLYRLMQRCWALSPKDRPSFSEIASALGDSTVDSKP

Take “ATCTAACTGCTGCGCCGCCGGGAAAATACTGTACGGTTAGA [Sgc8-c]”: the Kd is 0.78 nM.

One may read the Kd as a measure of binding affinity in units of concentration.
